The target of this test is spGFP_(1-10/11)-MSP1D1. The test is described as follows: SEC; purified scaffold protein without lipids; Superose 6 Increase 10/300 GL, 50 mM Tris-HCl pH 8, 100 mM NaCl, 5% glycerol; monomer (intramolecular complementation) against dimer (intermolecular complementation).

spGFP_(1-10/11)-MSP1D1 yielded a percent dimeric of 30% and a stoichiometry N of 2.

A word on the stoichiometry N: it is a count of units in the complex or per binding partner.

For the origin of these results see publication PMC9135701.
